Laboratory results published in patent US20200057058A1 (MIT, published 2020).

How the values were obtained:
[1] = target: T1, streptavidin (UniProt P22629 37-163, limits assumed); test: apparent Kd (Kd,app); fluorescent binding curve, labeled SA in PBS, 0.5 h exposure; quadratic fit
T1 construct: It was used without a stated label in the sandwich assays; also called SA

[2] = target: monomeric streptavidin variant mSA2; test: apparent Kd (Kd,app); fluorescent binding curve, labeled mSA2 in PBS, 0.5 h exposure; quadratic fit
[3] = target: monomeric streptavidin variant mSA2; test: fluorescent binding assay, labeled mSA2 in 50% urine on thin film, 4 h exposure
Method: (§1) The binding function of rcSso7d.SA oligomer-PNIPAM thin films was measured using fluorescently-labeled monomeric streptavidin (mSA2) and fluorescently-labeled streptavidin (SA). Details for the expression, purification, and fluorescent labeling of mSA2 are provided below. Samples were prepared by serial dilution of SA or mSA2 in PBS (pH 7.4), human urine (diluted to 50% v/v in PBS, pH 7.4), or blood serum (obtained as the supernatant by centrifuging whole blood at 1500×g for 10 minutes, then diluted to 50% v/v in PBS, pH 7.4). 0.5 μL drops of solutions containing serially diluted fluorescent mSA2 and fluorescent SA samples in PBS (pH 7.4) were gently applied to the surface of each bioconjugate thin film. Films were incubated in a sealed chamber saturated with water vapor at room temperature to prevent to prevent drying of the applied fluorescent samples. […] Fluorescence microscopy images were acquired at 4× magnification using a Cy5 filter set and exposure time of 5000 ms on an Olympus IX-81 inverted fluorescence microscope with an AxioCam HRC CCD camera. Fluorescent intensity was calculated using ImageJ software⁶⁷ by determining the average fluorescent signal in a rectangular area of the fluorescent image free of defects and occupying no less than half of the full sample application area.
(§2) To evaluate how the apparent size-based diffusion properties translated to biosensing capabilities, binding curves were measured using SA and mSA2 solutions in buffer. Binding curves were fit with a quadratic model that is a function of three parameters: the average MFI per binding event a, the total concentration of binding sites [P]T, and the apparent dissociation constant K_{d,app} describing the binding equilibrium between analyte and binding sites within the thin film.

[4] = target: monomeric streptavidin variant mSA2; test: fluorescent binding curves, labeled mSA2 in 50% urine or 50% blood serum, 4 h
[5] = target: T1, streptavidin; test: fluorescent binding curve, labeled SA in 50% urine, 4 h; quadratic fit
[6] = target: T1, streptavidin; test: fluorescent binding curve, labeled SA in 50% blood serum, 4 h; quadratic fit
[7] = target: T1, streptavidin; test: sandwich assay, SA in 50% blood serum, detection with biotin-HRP and TMB
Method: (§3) Each well was submerged in 1 mL of 1% BSA in Milli-Q water, and the 12-well plate was incubated at 37° C. for 30 minutes. The wells were rinsed twice by adding 2 mL of Milli-Q water and gently shaking the well plate at 70 rpm for 5 minutes. 1 mL of streptavidin diluted in PBS, urine, or blood serum (prepared as described in the Fluorescent Assays section) containing 0.1% BSA was then added to each well, and the well plate was shaken at 70 rpm for 4 hours at room temperature. Wells were rinsed twice with 2 mL of Milli-Q water then twice with 2 mL of 0.1% BSA in Milli-Q water by shaking at 70 rpm for 5 minutes. After rinsing, wells were submerged in 1 mL of 200 ng/mL biotin-HRP in Milli-Q water containing 0.1% BSA, and the well plate was shaken at 70 rpm for 1 hour at room temperature. Wells were then rinsed with water and 0.1% BSA as described previously. 1 mL of solution from a Pierce TMB substrate kit (Thermo Fisher Scientific) was added to each well, and the well plate was shaken vigorously at 125 rpm for 15 minutes at room temperature. 1 mL of 2M H2SO4 was added to each well, and the absorbance at 450 nm was read using a Tecan Infinite M200 PRO plate reader.
(§4) The general procedure for this proof-of-concept experiment is diagrammed in FIG. 28. Films were first exposed to SA solutions and rinsed to remove unbound analyte. Taking advantage of the strong interaction between SA and biotin, thin films were then submerged in a solution of biotinylated horseradish peroxidase (biotin-HRP). Bound SA was detected colorimetrically through the HRP-mediated oxidation of 3,3′,5,5′-tetramethylbenzidine (TMB). Attempts to perform this assay using mSA2 as the analyte were unsuccessful, even when run on an rcSso7d.SA monolayer.

[8] = target: T1, streptavidin; test: apparent Kd (Kd,app); fluorescent binding curve, labeled SA in PBS, 4 h exposure; quadratic fit
[9] = target: T1, streptavidin; test: sandwich assay: SA in 50% urine, biotin-HRP/TMB detection
Method: as §3, §4

[10] = target: T1, streptavidin; test: fluorescent binding curve, labeled SA in PBS, 30 min exposure
Method: as §1, with “film.” for “film. Films were incubated in a sealed chamber saturated with water vapor at room temperature to prevent to prevent drying of the applied fluorescent samples.”
(§5) To evaluate how the apparent size-based diffusion properties translated to biosensing capabilities, binding curves were measured using SA and mSA2 solutions in buffer. […]

[11] = target: T1, streptavidin; test: sandwich assay: SA in 50% blood serum, biotin-HRP/TMB detection
Method: as §3, §4

[12] = target: T1, streptavidin; test: fluorescent binding assay, labeled SA in 50% blood serum on thin film, 4 h exposure
[13] = target: monomeric streptavidin variant mSA2; test: fluorescent binding curve, labeled mSA2 in PBS, 4 h exposure
Method: as §1, with “film.” for “film. Films were incubated in a sealed chamber saturated with water vapor at room temperature to prevent to prevent drying of the applied fluorescent samples.”
as §5

[14] = target: monomeric streptavidin variant mSA2; test: fluorescent binding curve, labeled mSA2 in 50% urine, 4 h; quadratic fit
[15] = target: T1, streptavidin; test: apparent Kd (Kd,app); fluorescent binding curve, labeled SA in 50% blood serum, 4 h; quadratic fit
[16] = target: monomeric streptavidin variant mSA2; test: apparent Kd (Kd,app); fluorescent binding curve, labeled mSA2 in 50% urine, 4 h; quadratic fit
[17] = target: monomeric streptavidin variant mSA2; test: apparent Kd (Kd,app); fluorescent binding curve, labeled mSA2 in 50% blood serum, 4 h; quadratic fit
[18] = target: T1, streptavidin; test: apparent Kd (Kd,app); fluorescent binding curve, labeled SA in 50% urine, 4 h; quadratic fit
[19] = target: monomeric streptavidin variant mSA2; test: fluorescent binding assay, labeled mSA2 in 50% blood serum on thin film, 4 h exposure
Method: as §1, §2

[20] = target: T1, streptavidin; test: fluorescent binding assay, labeled SA in 50% urine on thin film, 4 h exposure
[21] = target: monomeric streptavidin variant mSA2; test: fluorescent binding curve, labeled mSA2 in PBS, 4 h exposure; quadratic fit
Method: as §1, §2

[22] = target: T1, streptavidin; test: fluorescent binding curve, labeled SA in PBS, 4 h exposure
Method: as §1, with “film.” for “film. Films were incubated in a sealed chamber saturated with water vapor at room temperature to prevent to prevent drying of the applied fluorescent samples.”
as §5

[23] = target: monomeric streptavidin variant mSA2; test: apparent Kd (Kd,app); fluorescent binding curve, labeled mSA2 in PBS, 4 h exposure; quadratic fit
Method: as §1, §2

[24] = target: monomeric streptavidin variant mSA2; test: fluorescent binding curve, labeled mSA2 in 50% blood serum, 4 h; quadratic fit
[25] = target: T1, streptavidin; test: fluorescent binding curve, labeled SA in PBS, 4 h exposure; quadratic fit
[26] = target: monomeric streptavidin variant mSA2; test: fluorescent binding assay, labeled mSA2 in PBS on thin film; quadratic curve fit
Method: (§6) The binding function of rcSso7d.SA oligomer-PNIPAM thin films was measured using fluorescently-labeled monomeric streptavidin (mSA2) and fluorescently-labeled streptavidin (SA). Details for the expression, purification, and fluorescent labeling of mSA2 are provided below. Samples were prepared by serial dilution of SA or mSA2 in PBS (pH 7.4), human urine (diluted to 50% v/v in PBS, pH 7.4), or blood serum (obtained as the supernatant by centrifuging whole blood at 1500×g for 10 minutes, then diluted to 50% v/v in PBS, pH 7.4). 0.5 μL drops of solutions containing serially diluted fluorescent mSA2 and fluorescent SA samples in PBS (pH 7.4) were gently applied to the surface of each bioconjugate thin film. Films were incubated in a sealed chamber saturated with water vapor at room temperature to prevent to prevent drying of the applied fluorescent samples. After 1 hour, films were thoroughly rinsed with water for 10 seconds (a time determined to be sufficient to remove unbound molecules from the film, see FIG. 33, dried under filtered airflow, and immediately analyzed for fluorescent signal. Fluorescence microscopy images were acquired at 4× magnification using a Cy5 filter set and exposure time of 5000 ms on an Olympus IX-81 inverted fluorescence microscope with an AxioCam HRC CCD camera. Fluorescent intensity was calculated using ImageJ software⁶⁷ by determining the average fluorescent signal in a rectangular area of the fluorescent image free of defects and occupying no less than half of the full sample application area.
Binding assays were performed by adding serially diluted solutions of fluorescently-labeled mSA2 to thin films of each studied conjugate (FIG. 6A). To maintain consistent transport properties between samples, each oligomer was conjugated to the same previously-synthesized 25 kDa PNIPAM sample. Analyte bound to thin films was quantified using fluorescence microscopy, and binding curves were fit to the collected mean fluorescent intensity (MFI) data using the following equation: […]

[27] = target: monomeric streptavidin variant mSA2; test: calculated from [P]T of the mSA2 binding curve fit and film thickness; set-up: Calculated Density (density of binding sites within a cross-sectional area of the film): unit not given here
Method: To determine the density of binding proteins within a single plane of each thin film, the concentration of accessible binding sites throughout the entire film—taken directly from the binding assay curve fits (Table 4)—was multiplied by the corresponding film thickness. When accounting for differences in film thickness, the density of oligomerized rcSso7d.SA proteins capable of binding mSA2 is found to increase […] with degree of oligomerization (Table 5). This calculated density decreases, though, between the 1×SP25k and 2×SP25k thin films, indicating a lower density of accessible binding sites in the protein domains of the oligomerized rcSso7d.SA conjugate film. The total number of predicted binding sites within each thin film assuming complete accessibility should be proportional to the […] of rcSso7d. SA in the conjugate with PNIPAM. Reasonable estimates for relative values of the predicted number of sites can thus be obtained by normalizing the weight fraction of rcSso7d. SA in each conjugate by the corresponding weight fraction in 1×SP25k. Comparing these predicted relative number of binding sites to the calculated values (FIG. 6C), all oligomeric rcSso7d.SA conjugates are found to contain fewer proteins capable of binding mSA2 than predicted. It is likely that this effect results from a combination of steric blocking of binding sites by bound mSA2 molecules as well as a lack of the free volume required to incorporate mSA2 molecules into the protein nanodomains at high degrees of binding. Despite the lower than expected binding capacity of the conjugate thin films, these biosensors contain approximately […] the quantity of accessible binding sites compared to rcSso7d.SA monolayers on a volumetric basis (Table 4). Recognizing that each plane (and a monolayer) of rcSso7d.SA proteins is roughly 1-2 nm thick,⁸⁰ the studied thin films can be determined to contain approximately 100 more planes of protein than a monolayer.

[28] = target: monomeric streptavidin variant mSA2; test: fluorescent binding assay, labeled mSA2 on thin film
Method: as §6, with “Films were incubated in a sealed chamber saturated with water vapor at room temperature to prevent to prevent drying of the applied fluorescent samples.” left out, “area. […]” for “area.”

[29] = target: monomeric streptavidin variant mSA2; test: fluorescent binding assay, labeled mSA2; signal three standard deviations above blank
Method: as §6
Oligomerization of rcSso7d.SA also brings about a decrease in biosensor limit of detection (LOD). […] While all thin films display improvements up to threefold in LOD over the monolayer, the trend in LOD with respect to degree of oligomerization is non-monotonic. The primary factor that is expected to affect LOD in the studied biosensors is number of binding sites, as more binding sites enable a greater number of analyte molecules to be captured and shifts analyte-receptor equilibrium in favor of binding events.

T1 sequence (P22629 37-163 limits assumed): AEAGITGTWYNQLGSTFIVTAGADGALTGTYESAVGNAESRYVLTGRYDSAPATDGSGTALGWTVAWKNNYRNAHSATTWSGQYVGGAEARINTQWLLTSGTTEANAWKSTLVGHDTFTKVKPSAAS

B1: 3xSP9.6k thin film (3x rcSso7d.SA-PNIPAM conjugate, PNIPAM Mn 9.6 kDa) (designed binder)
chain: MGSSHHHHHHSSGLVPRGSHMCATVKFTYQGEEKQVDISKIKIVARDGQYIDFKYDEGGGAYGYGWVSEKDAPKELLQMLEKQGGGGSGGGGSMATVKFTYQGEEKQVDISKIKIVARDGQYIDFKYDEGGGAYGYGWVSEKDAPKELLQMLEKQGGGGSGGGGSMATVKFTYQGEEKQVDISKIKIVARDGQYIDFKYDEGGGAYGYGWVSEKDAPKELLQMLEKQGG
modifications: maleimide end-functionalized PNIPAM (Mn 9.6 kDa) on the N-terminal Cys; film lightly crosslinked with glutaraldehyde
- Kd [1]: 60 µM
- Kd [2]: 11 µM
- Limit of Detection [3]: 9.8 nM
- LOD relative to rcSso7d.SA monolayer [4]: 2 orders of magnitude lower
- [P]T (total concentration of binding sites) [5]: 0.26 nM
- [P]T (total concentration of binding sites) [6]: 0.27 nM
- LOD relative to rcSso7d.SA monolayer [7]: 2 fold
- Kd [8]: 40 µM
- LOD [9]: 39 nM
- sensitivity relative to rcSso7d.SA monolayer [10]: > 10 fold
- LOD [11]: 87 nM
- Limit of Detection [12]: 1700 nM
- reduction in LOD relative to rcSso7d.SA monolayer [13]: 10 fold
- [P]T (total concentration of binding sites) [14]: 17 nM
- Kd [15]: 50 µM
- Kd [16]: 26 µM
- Kd [17]: 12.2 µM
- Kd [18]: 30 µM
- Limit of Detection [19]: 10.5 nM
- Limit of Detection [20]: 1300 nM
- [P]T (total concentration of binding sites) [21]: 0.7 nM
- sensitivity relative to rcSso7d.SA monolayer [22]: ~2 fold
- Kd [23]: 3.7 µM
- [P]T (total concentration of binding sites) [24]: 9.4 nM
- [P]T (total concentration of binding sites) [25]: 0.9 nM

B2: 3xSP25k thin film (3x rcSso7d.SA-PNIPAM conjugate, PNIPAM Mn 24.9 kDa) (designed binder)
chain: B1 chain
modifications: maleimide end-functionalized PNIPAM (Mn 24.9 kDa) on the N-terminal Cys; film lightly crosslinked with glutaraldehyde
notes: Three rcSso7d.SA repeats joined by (G4S)2 linkers in one chain; also called conjugate of the trimer
- [P]T (total concentration of accessible binding sites) [26]: 3.9 µM
- Calculated Density (density of binding sites within a cross-sectional area of the film) [27]: 59
- Calculated Ratio (film thickness x [P]T relative to the 1xSP25k thin film) [27]: 1.24
- fluorescent signal relative to rcSso7d.SA monolayer [28]: > 10 fold
- limit of detection (LOD) [29]: 110 nM
